Reference: patent US7208311B2, “Catalytic domain of ADAM33 and methods of use thereof” (Schering Corporation, priority 2002, dated 2007)
Each block holds one molecule with its values, some of them ahead of it.

Assays:
ADAM33 [1] = target: T1, ADAM33 (Homo sapiens, UniProt Q9BZ11); experiment: HPLC inhibition assay, ADAM33cat with KL-1 peptide substrate; format: biochemical; settings: at 2 µM
T1 construct: made in house; host or cells: Drosophila melanogaster S2 cells
T1 sequence (Q9BZ11 204-409 limits assumed): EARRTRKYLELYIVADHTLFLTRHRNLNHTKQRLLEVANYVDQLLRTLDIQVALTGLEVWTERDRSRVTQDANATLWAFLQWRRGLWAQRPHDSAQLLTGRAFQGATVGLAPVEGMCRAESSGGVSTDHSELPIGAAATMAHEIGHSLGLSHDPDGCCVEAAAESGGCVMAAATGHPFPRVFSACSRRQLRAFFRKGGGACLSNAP
Protocol: The inhibition dissociation constants (Ki) for inhibitors were determined as follows: an HPLC assay was performed in the presence or absence of inhibitors for 2 h at RT using ADAM33cat (80 nM) and KL-1 peptide substrate (100 μM). For testing tissue inhibitor of metalloproteinases (TIMPs), ADAM33 and human TIMPs were pre-incubated for 1 h at RT. […] Initial velocities were calculated by dividing cleaved product over reaction time. The initial velocities were plotted as a function of inhibitor concentration. For tight binding inhibitors (IK682, TIMP-3), the apparent inhibitor dissociation constants (Ki app values) were calculated by fitting the curve to the following modified Morrison's equation: vi=vo{[(Eo−Io−Ki^app)^2+4 Ki^appEo]^1/2+(Eo−IoKI^app)}/2Eo where Ki^app=Ki(1+S/Km), vo is the uninhibited initial velocity, vi is the initial velocity in the presence of inhibitor at any given inhibitor concentration Io, and Eo is initial enzyme concentration. When the substrate concentration S<<Km, Ki^app is approximately equal to Ki.

human ADAM17 = human ADAM17 (Homo sapiens, UniProt P78536); experiment: Inhibition of human ADAM17 by human TIMPs, fluorogenic pro-TNF-alpha substrate; format: biochemical; settings: ADAM17 1 nM, substrate 25 μM
Protocol: Inhibition of human ADAM17 by human TIMPs was determined as follows: ADAM17 (1 nM) was pre-incubated with serial dilutions of TIMP-1 (0–4 μM), TIMP-2 (0–1 μM), TIMP-3 (0–0.2 μM), or TIMP-4 (0–4 μM), in assay buffer (25 mM HEPES, pH7.5, 5 mM CaCl2, 0.1 mM ZnCl2) for 1 h at RT, followed by addition of the fluorogenic pro-TNF-alpha substrate (25 μM), K(mca)SPLAQAVRSSSRK(dnp) (SEQ ID NO: 46). The reaction velocities were measured using the GEMINI fluorescence reader at 320/380 nm for 1 h and inhibition dissociation constants were calculated by fitting the data to Morrison equation (TIMP-2 and TIMP-3) or Michaelis-Menten equation (TIMP-1 and TIMP-4) as described above.

ADAM33 [2] = experiment: MCF 12-mer peptide proteolysis assay (HPLC); format: biochemical, human; settings: MCF peptide substrate
Protocol: A 12-mer peptide (i.e. Ac-LPPVAASSLNRD-NH2; SEQ ID NO: 48), derived from human mast-cell growth factor (accession number NP-038626) was synthesized as a substrate for ADAM33. Reactions were initiated by addition of 200 nM enzyme to appropriate amounts of substrate in assay buffer (25 mM HEPES, pH 7.5, 0.5 M NaCl, 0.1% n-octyl-β-D-glucoside), incubated at 22° C. for 2 h and subsequently quenched with 1% TFA. When inhibitors were evaluated, the enzyme and inhibitors were preincubated at 22° C. for 30 min prior to initiation of the assays. Substrate and products were separated by HPLC using a C-8 reverse phase column (Zobrax 3.5 μm, 4.6 mmD/5 cmL, Agilent, Palo Alto, Calif., 0.1% TFA acetonitrile/H2O). Elution was monitored at 214 nm, and peaks identified by mass spectroscopy. Initial rates of proteolysis were determined using reactions in which less than 10% of the substrate was consumed. kcat/Km values were calculated assuming the enzymes were 100% active.
Production of ADAM33 and mutants thereof were produced essentially as described in Example 1. Proteolytic assays and methods for determining catalytic rates are essentially as described in Examples 2 and 3.

Chain of human ADAM17 (P78536 215-824): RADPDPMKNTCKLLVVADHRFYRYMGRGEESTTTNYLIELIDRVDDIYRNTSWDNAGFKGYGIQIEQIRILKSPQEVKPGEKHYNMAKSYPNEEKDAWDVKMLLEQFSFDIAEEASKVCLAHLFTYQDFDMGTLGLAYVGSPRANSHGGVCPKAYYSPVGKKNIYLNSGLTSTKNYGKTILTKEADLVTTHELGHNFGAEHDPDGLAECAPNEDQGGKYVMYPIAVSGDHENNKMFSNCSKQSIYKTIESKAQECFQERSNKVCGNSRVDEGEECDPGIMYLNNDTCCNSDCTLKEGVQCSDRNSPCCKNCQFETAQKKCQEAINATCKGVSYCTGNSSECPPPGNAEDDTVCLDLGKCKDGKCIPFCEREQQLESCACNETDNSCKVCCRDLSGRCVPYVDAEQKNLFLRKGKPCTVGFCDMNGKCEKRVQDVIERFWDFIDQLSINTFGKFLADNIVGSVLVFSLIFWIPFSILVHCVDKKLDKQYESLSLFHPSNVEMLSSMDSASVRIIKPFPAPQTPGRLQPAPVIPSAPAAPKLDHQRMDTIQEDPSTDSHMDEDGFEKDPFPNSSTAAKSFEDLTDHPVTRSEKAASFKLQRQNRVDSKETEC

inhibition of ADAM33 activity (ADAM33 [1]): no inhibition
inhibition of human ADAM17 activity (human ADAM17): weakly inhibited
Molecule: TIMP-1: human tissue inhibitor of metalloproteinases 1, endogenous inhibitor of MMPs and ADAMs

inhibition of human ADAM17 activity (human ADAM17): inhibited
B1: TIMP4: human tissue inhibitor of metalloproteinases 4, endogenous inhibitor of MMPs and ADAMs (protein)
chain: CSCAPAHPQQHICHSALVIRAKISSEKVVPASADPADTEKMLRYEIKQIKMFKGFEKVKDVQYIYTPFDSSLCGVKLEANSQKQYLLTGQVLSDGKVFIHLCNYIEPWEDLSLVQRESLNHHYHLNCGCQITTCYTVPCTISAPNECLWTDWLLERKLYGYQAQHYVCMKHVDGTCSWYRGHLPLRKEFVDIVQP

inhibition of human ADAM17 activity (human ADAM17): inhibited
B2: TIMP-3: human tissue inhibitor of metalloproteinases 3, endogenous inhibitor of MMPs and ADAMs (protein)
chain: CTCSPSHPQDAFCNSDIVIRAKVVGKKLVKEGPFGTLVYTIKQMKMYRGFTKMPHVQYIHTEASESLCGLKLEVNKYQYLLTGRVYDGKMYTGLCNFVERWDQLTLSQRKGLNYRYHLGCNCKIKSCYYLPCFVTSKNECLWTDMLSNFGYPGYQSKHYACIRQKGGYCSWYRGWAPPDKSIINATDP

B3: pro-CAT single chain zymogen form: single chain zymogen form of ADAM33 (R203T/R207S; SEQ ID NO:54) (protein)
chain: LQGHIPGQPVTPHWVLDGQPWRTVSLEEPVSKPDMGLVALEAEGQELLLELEKNHRLLAPGYIETHYGPDGQPVVLAPNHTDHCHYQGRVRGFPDSWVVLCTCSGMSGLITLSRNASYYLRPWPPRGSKDFSTHEIFRMEQLLTWKGTCGHRDPGNKAGMTSLPGGPQSRGRTEARSTRKYLELYIVADHTLFLTRHRNLNHTKQRLLEVANYVDQLLRTLDIQVALTGLEVWTERDRSRVTQDANATLWAFLQWRRGLWAQRPHDSAQLLTGRAFQGATVGLAPVEGMCRAESSGGVSTDHSELPIGAAATMAHEIGHSLGLSHDPDGCCVEAAAESGGCVMAAATGHPFPRVFSACSRRQLRAFFRKGGGACLSNAP
modifications: homo sapiens
catalytic efficiency relative to CAT domain (ADAM33 [2]): no significant difference
